From publication PMC6923934, “The peptide transporter 1a of the zebrafish Danio rerio, an emerging model in nutrigenomics and nutrition research: molecular characterization, functional properties, and expression analysis” (Genes & Nutrition, 2019) come the findings set out here.

Substrate in data set [1]: NCC(=O)N[C@@H](CCC(N)=O)C(=O)O
In words: two-electrode voltage clamp, transport current in Xenopus oocytes. As to conditions: pH 6.5, -60 mV, NaCl buffer, proton-coupled. The format is cell-based, Danio rerio. The source says:
two-electrode voltage clamp, transport current in Xenopus oocytes on zebrafish PepT1a (Slc15a1a)
Background: In two-electrode clamp one electrode senses voltage and the other passes current.

Substrate in data set [2]: NCC(=O)N[C@@H](CCC(N)=O)C(=O)O
The description is as above. The format is cell-based, Danio rerio. As to conditions: pH 6.5, -60 mV, NaCl buffer, proton-coupled. An excerpt:
two-electrode voltage clamp, transport current in Xenopus oocytes on zebrafish PepT1b (Slc15a1b)
The source holds these as a separate data set.

B1: zebrafish PepT1a (Slc15a1a) (Danio rerio) (protein)
chain: MPDSKMDETKKKKKKTAECCGYPISIFFIVVNEFCERFSYYGMRAVLVLYFRYFLLWDDDLATSIYHAFVALCYLTPILGAIIADSWLGKFKTIIYLSIVYAVGQVVMAVSTIHDITDANRDGTPDNFTLHIALSMLGLVLIALGTGGIKPCVAAFGGDQFQEHQSRQLNTFFSVFYLCINAGSLLSTLITPVLRAQECGIHTQQQCYPLAFGVPAALMVVSLVVFIAGSGMYTKTAPEGNIMGSVCKCIWFALNNRFRHRSDIYPKREHWMDWAEEKYDKLLIAQIKMVLKVLFLYIPLPMFWTLFDQKGSRWTLQATTMTGDFGGFVLQPDQMQTVNPILILTLVPIMDRIIFPLIKKCGLNFSPLKRMTVGMLFAATAFIAAALVQMEIDKTLPNFPSSSESQLKVVNMHSESLIVTVPSQEPLLIGSFESSPDYITFDQQDIRLAFNTTPEINKDLSLIKGSRQTLIIPSEPAEMYLKEDIKSKPKEGKNAVRFVNGWTAYLNITNLESSLQPSETSNYTLVSQGMRKFTLTDGIQSCEFSRKFGFGSSYTFLIPSDLFSTDCESIKEIEDMQPNSVHMALQIPQYFLITTGEVMFSVTGLQFSYSQAPKNMKSVLQAGWLCTNAVGNIIVLIVAELGKLPKQWAEYVLFASLLVAVSIIFSIMAYFYTYIDPAEIEAEILKQQETDPDKKKKKETLEMEEKENEQEIKQTKI
notes: full-length cDNA cloned from zebrafish intestine, 717 residues, pSPORT1, cRNA in Xenopus laevis oocytes; untagged
For the protein B1, the K0.5 in data set [1] was 0.24 ± 0.07 mmol/L.

B2: zebrafish PepT1b (Slc15a1b) (Danio rerio) (protein)
chain: MADKEGHKQKKERASCFGYPVSIFFIVVNEFCERFSYYGMKAVLVLYFKYFIGWDDDLSTTIYHTFVALCYLTPIMGAIIADSWLGKFKTIVYLSIVYTIGQVIMAISAIHDITDANRDGKPDNKTLHISLSMLGLILIALGTGGIKPCVAAFGGDQFEDHQEKQRSTFFSIFYLSINAGSLLSTLITPILRSQECGIYAKQSCYPLAFGVPAALMVVALIVFVIGHKMYIMESPKGNILLQVINCIGFALNNRFRHRGKQYPKREHWMDWAEEKYDKLLIAQVKMVVKVLFLYIPLPMFWALFDQQGSRWTIQATTMDGNFGGFVIQPDQMQIVNPILIVIMVPIMDSAIYPLIKLCRINFTPLRKMTVGMVLAALAFVAAALLQLQIDETMPKFPSTSQTQLKFLNVESTSLPVVVEGQDQFMVPGFNASSEYLTLDKENVTISAGGVNDTAFLKTGTRHTVLMNAAGMRNTLDDLTEKPEQGLNAIRFVNGWENRLNVSVKSDNVHADPLDASVYLLVPHGKVNFTIFDGGDGKCHYIMQLGFGSTYTVLIPSTFAFGQTCSESFEAVQDMEPNRIHMAWQVIQYFLLTCGEVVYSVTGLDFSYSQAPSNMKSVLQAGWLLTVAVGNIIVLIVAEAGSLPDQWAEYLLFASLLVAVSIIFAIMAYFYTYIDPNEIEAKFKELEPEDKKRKEMQMTAKDNMAYVHNENTNIKQTKI
notes: cRNA-expressed in Xenopus laevis oocytes; construct not described here (previously cloned zebrafish PepT1)
Turning to B2, the K0.5 in data set [2] was determined as 0.13 ± 0.02 mmol/L.
